Laboratory results: publication PMC9408373
Values joined by “and” are separate entries in the source; they are usually repeats but may differ in a detail not shown here. Equal entries are not always repeated.

Key:
[1] = molecular target: CDC42 IH variants (four different single residue mutations and a quadruple mutation of the insert helix); test: fluorescence polarisation; 1 µM mant-GDP-bound CDC42 in the cuvette, IQGAP protein titrated; quadratic ligand binding equation
[2] = molecular target: CDC42 IH variants (four different single residue mutations and a quadruple mutation of the insert helix); test: fluorescence polarisation; 1 µM mant-GppNHp-bound CDC42 in the cuvette, IQGAP protein titrated; quadratic ligand binding equation
[3] = molecular target: human CDC42 (aa 1-178) 8xSW (human) (UniProt P60953); test: as above
Sequence of human CDC42 (aa 1-178) 8xSW (human) (P60953 1-178): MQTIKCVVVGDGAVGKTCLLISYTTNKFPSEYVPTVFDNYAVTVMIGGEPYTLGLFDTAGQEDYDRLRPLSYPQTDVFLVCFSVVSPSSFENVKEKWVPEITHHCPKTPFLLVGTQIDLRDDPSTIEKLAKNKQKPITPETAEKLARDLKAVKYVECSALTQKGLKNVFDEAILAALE

[4] = molecular target: the CDC42 variants (2xSW and 8xSW), mGppNHp-bound; test: as above

Sequence of human IQGAP1 C794 (aa 863-1657) (P46940 863-1657): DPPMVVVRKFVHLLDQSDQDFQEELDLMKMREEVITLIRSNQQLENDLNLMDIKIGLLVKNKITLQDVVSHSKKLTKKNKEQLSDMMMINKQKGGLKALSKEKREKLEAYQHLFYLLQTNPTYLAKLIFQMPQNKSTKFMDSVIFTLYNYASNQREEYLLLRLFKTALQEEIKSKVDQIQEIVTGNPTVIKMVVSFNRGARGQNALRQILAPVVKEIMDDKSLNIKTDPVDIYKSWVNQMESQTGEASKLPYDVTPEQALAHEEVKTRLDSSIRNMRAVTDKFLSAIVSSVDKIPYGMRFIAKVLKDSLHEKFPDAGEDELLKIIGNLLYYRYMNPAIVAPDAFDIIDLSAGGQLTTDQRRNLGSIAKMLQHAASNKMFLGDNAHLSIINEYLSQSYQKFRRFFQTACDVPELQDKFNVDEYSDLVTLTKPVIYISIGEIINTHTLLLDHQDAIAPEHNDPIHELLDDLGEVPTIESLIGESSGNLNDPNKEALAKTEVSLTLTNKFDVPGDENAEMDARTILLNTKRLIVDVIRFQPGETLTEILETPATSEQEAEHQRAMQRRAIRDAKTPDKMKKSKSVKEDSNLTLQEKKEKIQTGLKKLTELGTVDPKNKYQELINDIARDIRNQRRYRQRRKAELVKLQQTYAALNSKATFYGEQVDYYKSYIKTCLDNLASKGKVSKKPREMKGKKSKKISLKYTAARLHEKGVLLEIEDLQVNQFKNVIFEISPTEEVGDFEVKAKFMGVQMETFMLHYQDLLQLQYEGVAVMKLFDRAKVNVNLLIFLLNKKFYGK
Sequence of human IQGAP1 GRD1 (aa 962-1345) (P46940 962-1345): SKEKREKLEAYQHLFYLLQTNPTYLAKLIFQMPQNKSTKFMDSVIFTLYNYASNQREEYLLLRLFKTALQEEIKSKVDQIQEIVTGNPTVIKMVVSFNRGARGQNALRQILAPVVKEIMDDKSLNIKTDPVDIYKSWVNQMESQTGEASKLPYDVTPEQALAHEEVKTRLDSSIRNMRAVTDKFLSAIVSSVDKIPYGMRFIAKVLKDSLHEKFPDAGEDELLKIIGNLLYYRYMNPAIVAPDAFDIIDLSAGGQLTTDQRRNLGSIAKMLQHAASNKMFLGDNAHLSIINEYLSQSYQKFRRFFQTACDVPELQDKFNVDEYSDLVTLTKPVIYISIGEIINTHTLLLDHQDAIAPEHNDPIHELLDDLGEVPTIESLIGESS

Substance | fold lower affinity than for CDC42 WT [1] [fold] | fold lower affinity than for CDC42 WT [2] [fold] | fold reduction in binding affinity against CDC42 WT [3] [fold] | fold reduction in binding affinity against CDC42 WT [4]
human IQGAP1 C794 (aa 863-1657) (from UniProt P46940 863-1657) (domain or fragment) | 3 | 20 | 86 | –
human IQGAP1 GRD1 (aa 962-1345) (from UniProt P46940 962-1345) (domain or fragment) | – | – | – | 2 fold and 3 fold
